Changes are numbered by the printed parent chain.
B1: active MMP-9-binding peptide M91004 (designed binder)
chain: GSGMKETAAAKFERQHMDSPDLGTDDDDKAMADIGSANSDPQFGLFSKYRTPNCRQRKGPSCQMAFQPVCGSDMSTYANECTLCMKIREGGHNIKIIRNGPCGASAAA
B2: active MMP-9-binding peptide M91010 (designed binder)
chain: B1 chain with Q56K, R57V, K58G, G59E, S61A, A65S, Q67N
B3: active MMP-9-binding peptide M91005 (designed binder)
chain: B1 chain with Q56K, K58G, A65S, F66Y, Q67N
B4: active MMP-9-binding peptide M91002 (designed binder)
chain: B1 chain with Q56T, R57G, K58R, S61A, A65G
B5: active MMP-9-binding peptide M91001 (designed binder)
chain: B1 chain with R55Q, Q56R, R57G, K58I, A65S, F66Y, Q67K
B6: active MMP-9-binding peptide M91011 (designed binder)
chain: B1 chain with R55M, Q56M, R57Y, G59Y, P60A, S61Q, Q63S, M64H, A65K, F66S
B7: active MMP-9-binding peptide M91012 (designed binder)
chain: B1 chain with Q56V, K58G, A65S, Q67N
B8: active MMP-9-binding peptide M91014 (designed binder)
chain: GSGMKETAAAKFERQHMDSPDLGTDDDDKAMADIGSANSDPQFGLFSKYRTPNCVMYKYAQCSHKYKPVCGSDMSTYANECTLCMKIREGGHNIKIIRNGPCGASAAA

Each binder was assayed against active hMMP-9(cat)_His6 (UniProt P14780 107-449) (assay: enzyme inhibition; substrate peptide).
active hMMP-9(cat)_His6, sequence (P14780 107-449): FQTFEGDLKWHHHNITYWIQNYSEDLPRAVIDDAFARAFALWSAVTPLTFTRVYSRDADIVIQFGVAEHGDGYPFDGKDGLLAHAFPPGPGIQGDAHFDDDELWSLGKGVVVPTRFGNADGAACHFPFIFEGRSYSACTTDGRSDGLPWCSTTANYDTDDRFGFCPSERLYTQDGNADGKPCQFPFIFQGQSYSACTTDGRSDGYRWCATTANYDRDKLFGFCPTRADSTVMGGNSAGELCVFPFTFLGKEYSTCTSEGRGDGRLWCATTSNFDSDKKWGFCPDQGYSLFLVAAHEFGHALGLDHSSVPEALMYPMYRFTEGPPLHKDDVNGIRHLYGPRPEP

Binder | Ki
B1 | 1.2 nM
B2 | 1.2 nM
B3 | 1.4 nM
B4 | 2.3 nM
B5 | 2.6 nM
B6 | 1.6 nM
B7 | 2.1 nM
B8 | 0.45 nM

Each binder was assayed against MT2-MMP, Catalytic Domain, Human, Recombinant, E. coli (human, UniProt P51511 132-304) (assay: enzyme inhibition).
MT2-MMP, Catalytic Domain, Human, Recombinant, E. coli, sequence (P51511 132-304): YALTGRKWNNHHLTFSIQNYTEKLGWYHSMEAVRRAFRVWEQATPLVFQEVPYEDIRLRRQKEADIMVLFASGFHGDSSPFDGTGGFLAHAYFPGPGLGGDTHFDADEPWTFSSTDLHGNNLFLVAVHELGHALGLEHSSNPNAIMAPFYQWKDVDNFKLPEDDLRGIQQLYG

Binder | IC50
B1 | > 1000 nM
B2 | > 1000 nM
B3 | > 1000 nM
B4 | > 1000 nM
B5 | > 1000 nM
B6 | > 1000 nM
B7 | > 1000 nM
B8 | > 1000 nM

Target: T1, MMP-2, active, Human, Recombinant, CHO Cells (human, UniProt P08253 110-660)
T1 chain: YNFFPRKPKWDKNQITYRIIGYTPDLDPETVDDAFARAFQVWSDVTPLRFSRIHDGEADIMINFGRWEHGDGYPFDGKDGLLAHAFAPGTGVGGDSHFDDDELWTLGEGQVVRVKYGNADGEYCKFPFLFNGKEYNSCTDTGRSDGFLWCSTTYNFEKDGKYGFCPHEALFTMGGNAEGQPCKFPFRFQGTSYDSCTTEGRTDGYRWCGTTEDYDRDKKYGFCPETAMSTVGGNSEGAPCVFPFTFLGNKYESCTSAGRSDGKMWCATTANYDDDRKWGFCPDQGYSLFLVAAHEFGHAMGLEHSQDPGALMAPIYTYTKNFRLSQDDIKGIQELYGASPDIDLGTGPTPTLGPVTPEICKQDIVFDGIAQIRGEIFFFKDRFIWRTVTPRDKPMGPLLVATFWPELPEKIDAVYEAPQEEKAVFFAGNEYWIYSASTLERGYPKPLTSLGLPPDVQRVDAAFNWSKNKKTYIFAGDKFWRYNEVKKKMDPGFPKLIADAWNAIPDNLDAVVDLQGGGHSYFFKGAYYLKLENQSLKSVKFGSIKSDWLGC
Test: enzyme inhibition

Binder | IC50
B1 | > 1000 nM
B2 | > 1000 nM
B3 | > 1000 nM
B4 | > 1000 nM
B5 | > 1000 nM
B6 | > 1000 nM
B7 | > 1000 nM
B8 | > 1000 nM

Each binder was assayed against Recombinant Human MMP-16/MT3-MMP Protein, CF (human, UniProt P51512 32-564) (assay: enzyme inhibition).
Recombinant Human MMP-16/MT3-MMP Protein, CF, sequence (P51512 32-564): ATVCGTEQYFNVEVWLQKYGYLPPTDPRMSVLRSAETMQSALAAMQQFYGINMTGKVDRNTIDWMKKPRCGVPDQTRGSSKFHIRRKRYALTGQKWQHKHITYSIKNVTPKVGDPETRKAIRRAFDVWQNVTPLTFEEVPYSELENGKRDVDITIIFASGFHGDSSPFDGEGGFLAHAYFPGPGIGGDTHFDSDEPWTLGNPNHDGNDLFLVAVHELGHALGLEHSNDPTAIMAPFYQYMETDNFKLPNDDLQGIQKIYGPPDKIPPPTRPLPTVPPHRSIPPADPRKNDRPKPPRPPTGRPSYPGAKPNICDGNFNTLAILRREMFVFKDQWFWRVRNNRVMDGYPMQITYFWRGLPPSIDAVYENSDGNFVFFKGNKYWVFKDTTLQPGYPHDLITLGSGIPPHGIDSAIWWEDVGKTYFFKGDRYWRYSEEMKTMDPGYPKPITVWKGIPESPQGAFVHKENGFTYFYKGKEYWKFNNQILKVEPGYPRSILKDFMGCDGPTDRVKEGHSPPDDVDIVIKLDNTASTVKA

Binder | IC50
B1 | > 1000 nM
B2 | > 1000 nM
B3 | > 1000 nM
B4 | > 1000 nM
B5 | > 1000 nM
B6 | > 1000 nM
B7 | > 1000 nM
B8 | > 1000 nM

These binders were tested against APMA-activated human MMP-8 enzyme active domain (human, UniProt P22894 101-262) (assay: enzyme inhibition).
APMA-activated human MMP-8 enzyme active domain, sequence (P22894 101-262): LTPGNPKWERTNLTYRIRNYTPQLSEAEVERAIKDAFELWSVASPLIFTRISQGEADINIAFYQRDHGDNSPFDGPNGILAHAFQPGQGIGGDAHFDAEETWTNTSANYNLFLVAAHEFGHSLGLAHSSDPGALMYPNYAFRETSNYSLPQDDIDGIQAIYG

Binder | IC50
B1 | > 1000 nM
B2 | > 1000 nM
B3 | > 1000 nM
B4 | > 1000 nM
B5 | > 1000 nM
B6 | > 1000 nM
B7 | > 1000 nM
B8 | > 1000 nM

Target: T2, Recombinant Human MMP-17 Protein, CF (human, UniProt Q9ULZ9 36-565)
T2 chain: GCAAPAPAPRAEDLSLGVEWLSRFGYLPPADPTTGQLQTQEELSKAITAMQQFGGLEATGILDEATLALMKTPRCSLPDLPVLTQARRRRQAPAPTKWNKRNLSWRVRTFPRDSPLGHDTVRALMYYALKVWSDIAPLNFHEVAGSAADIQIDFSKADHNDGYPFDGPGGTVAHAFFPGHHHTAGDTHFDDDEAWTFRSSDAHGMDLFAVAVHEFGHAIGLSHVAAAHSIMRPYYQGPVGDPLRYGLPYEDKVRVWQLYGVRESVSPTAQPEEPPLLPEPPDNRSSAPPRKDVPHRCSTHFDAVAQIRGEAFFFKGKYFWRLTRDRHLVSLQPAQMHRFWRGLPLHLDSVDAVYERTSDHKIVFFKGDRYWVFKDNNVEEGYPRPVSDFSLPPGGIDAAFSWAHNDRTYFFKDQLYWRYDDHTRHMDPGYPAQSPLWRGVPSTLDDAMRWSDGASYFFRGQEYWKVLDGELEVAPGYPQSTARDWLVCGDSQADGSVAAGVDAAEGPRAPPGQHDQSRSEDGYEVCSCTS
Test: enzyme inhibition

Binder | IC50
B1 | > 1000 nM
B2 | > 1000 nM
B3 | > 1000 nM
B4 | > 1000 nM
B5 | > 1000 nM
B6 | > 1000 nM
B7 | > 1000 nM
B8 | > 1000 nM

Target: T3, APMA-activated human MMP-1 enzyme active domain (human, UniProt P03956 100-269)
T3 chain: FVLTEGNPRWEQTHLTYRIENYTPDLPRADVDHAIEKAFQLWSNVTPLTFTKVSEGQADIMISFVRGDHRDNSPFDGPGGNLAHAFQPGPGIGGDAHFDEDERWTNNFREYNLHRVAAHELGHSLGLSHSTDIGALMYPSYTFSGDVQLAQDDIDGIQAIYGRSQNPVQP
Test: enzyme inhibition

Binder | IC50
B1 | > 1000 nM
B2 | > 1000 nM
B3 | > 1000 nM
B4 | > 1000 nM
B5 | > 1000 nM
B6 | > 1000 nM
B7 | > 1000 nM
B8 | > 1000 nM

Target: T4, ADAM17 (catalytic domain) (human), (recombinant) (His-tag) (human, UniProt P78536 215-477)
T4 chain: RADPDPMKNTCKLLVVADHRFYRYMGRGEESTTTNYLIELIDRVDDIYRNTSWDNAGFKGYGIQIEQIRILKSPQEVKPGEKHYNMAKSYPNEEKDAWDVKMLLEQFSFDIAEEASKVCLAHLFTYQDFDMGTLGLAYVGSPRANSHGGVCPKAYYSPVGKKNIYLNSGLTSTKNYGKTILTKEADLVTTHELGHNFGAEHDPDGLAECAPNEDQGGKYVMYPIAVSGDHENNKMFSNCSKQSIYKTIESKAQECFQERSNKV
Test: enzyme inhibition

Binder | IC50
B1 | > 1000 nM
B2 | > 1000 nM
B3 | > 1000 nM
B4 | > 1000 nM
B5 | > 1000 nM
B6 | > 1000 nM
B7 | > 1000 nM
B8 | > 1000 nM

The binders below were run against APMA-activated human MMP-13 enzyme active domain (human, UniProt P45452 104-274) (assay: enzyme inhibition).

Binder | IC50
B1 | > 1000 nM
B2 | > 1000 nM
B3 | > 1000 nM
B4 | > 1000 nM
B5 | > 1000 nM
B6 | > 1000 nM
B7 | > 1000 nM
B8 | > 1000 nM

Each binder was assayed against MMP14 Recombinant Protein (human, UniProt P50281 112-287) (assay: enzyme inhibition).

Binder | IC50
B1 | > 1000 nM
B2 | > 1000 nM
B3 | > 1000 nM
B4 | > 1000 nM
B5 | > 1000 nM
B6 | > 1000 nM
B7 | > 1000 nM
B8 | > 1000 nM

Each binder was assayed against MMP-12 (catalytic domain) (human), (recombinant) (human, UniProt P39900 106-263) (assay: enzyme inhibition).
MMP-12 (catalytic domain) (human), (recombinant), sequence (P39900 106-263): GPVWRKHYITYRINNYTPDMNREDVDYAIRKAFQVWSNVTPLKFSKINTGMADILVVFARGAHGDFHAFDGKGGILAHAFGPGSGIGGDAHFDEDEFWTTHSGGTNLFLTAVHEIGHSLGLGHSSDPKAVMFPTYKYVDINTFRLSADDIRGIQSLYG

Binder | IC50
B1 | > 1000 nM
B2 | > 1000 nM
B3 | > 1000 nM
B4 | > 1000 nM
B5 | > 1000 nM
B6 | > 1000 nM
B7 | > 1000 nM
B8 | > 1000 nM

Target: T5, MMP-7 (catalytic domain) (human), (recombinant) (human, UniProt P09237 95-267)
T5 chain: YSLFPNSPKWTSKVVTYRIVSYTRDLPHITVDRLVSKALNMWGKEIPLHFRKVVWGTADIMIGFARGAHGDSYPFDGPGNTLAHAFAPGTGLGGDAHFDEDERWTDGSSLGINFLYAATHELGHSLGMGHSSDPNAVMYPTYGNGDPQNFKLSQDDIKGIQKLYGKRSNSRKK
Test: enzyme inhibition

Binder | IC50
B1 | > 1000 nM
B2 | > 1000 nM
B3 | > 1000 nM
B4 | > 1000 nM
B5 | > 1000 nM
B6 | > 1000 nM
B7 | > 1000 nM
B8 | > 1000 nM

What follows are binders tested against active hMMP-9(cat)_Y393A (UniProt P14780 107-449) (assay: substrate peptide enzyme inhibition).
active hMMP-9(cat)_Y393A, sequence (P14780 107-449 Y393A): as the sequence (P14780 107-449) above, with Y287A counted along it

Binder | IC50
B3 | 48 nM
B6 | > 950 nM

Each binder was assayed against active hMMP-9(cat)_Y423A (UniProt P14780 107-449) (assay: substrate peptide enzyme inhibition).
active hMMP-9(cat)_Y423A, sequence (P14780 107-449 Y423A): as the sequence (P14780 107-449) above, with Y317A counted along it

Binder | IC50
B3 | 230 nM
B6 | > 330 nM

What follows are binders tested against active hMMP-9(cat)_R424T (UniProt P14780 107-449) (assay: substrate peptide enzyme inhibition).
active hMMP-9(cat)_R424T, sequence (P14780 107-449 R424T): as the sequence (P14780 107-449) above, with R318T counted along it

Binder | IC50
B3 | 31 nM
B6 | 45 nM

Reference: patent US20200231654A1 (published 2020)
